Results on six substances are retold here after patent US10562935B2, “Stapled peptides and uses thereof” (London Health Sciences Centre Research Inc., priority 2015, dated 2020).

Bridges are numbered along the chain shown (N, C = ends).

For series [1], the system named is RHAMM-overexpressing (LR21) cells. The series is described as follows: Cell invasion assay (Boyden chamber with MATRIGEL, Chemicon ECM555). It counts as cell-based. Particulars: for Invasion (% inhib.): % inhibition relative to positive control, 10 ng/mL of peptide; for inhibition of cellular invasion (in words): 10 ng/mL peptide, 20 hours, compared to 30% serum control. The method, boiled down:
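Serum-starved RHAMM-overexpressing LR21 cells (7.5×10^4) placed in upper Boyden chamber over MATRIGEL-coated filter, with or without 10 ng/mL peptide; 30% FBS/DMEM chemoattractant below. Invaded cells quantified after 20 h by CyQUANT GR fluorescence (480/520 nm); mean ± SD, n=3, versus 30% serum control.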

Series [2] in a line: Circular dichroism (CD) spectroscopy of linear and stapled peptides in water or 40% TFE/water (Example 3). The format is physicochemical. The following applies: for [0]208 mean residue ellipticity: λ = 208 nm; for [0]222 mean residue ellipticity: λ = 222 nm. The method, boiled down:
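Spectra 180–260 nm at 20 °C, 0.5 mM N-acetylated, C-amidated peptides in 0.1M phosphate buffer (water) or 40% TFE/water, 1 mm path, five scans averaged, buffer baseline subtracted. Mean residue ellipticity reported at 222 and 208 nm with the 222/208 ratio as helicity index.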
Background: CD spectra are sensitive to the conformation of chiral molecules.

The test system of series [3] is RHAMM-overexpressing (LR21) cells. The series is described as follows: Cell migration assay (Boyden chamber, Chemicon ECM510). It counts as cell-based. The following applies: for inhibition of cell migration (in words): 10 ng/mL peptide, 20 hours, compared to 30% serum control; for Migration (% inhib.): % inhibition relative to positive control. The method, boiled down: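 Serum-starved LR21 cells (7.5×10^4) placed in the upper Boyden chamber with or without 10 ng/mL peptide, with 30% FBS in DMEM as lower-chamber chemoattractant. Cells crossing the membrane after 20 h quantified by CyQUANT GR fluorescence (480/520 nm); mean of n=3, compared with 30% serum control.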

Setting [4] is: [θ]222/[θ]208 ratio in water, summary tables 15, 17, 19.
Where [5] appears, read: as repeated in tables 16, 18, 20.

With “Ac-(cyclo-10-14, cyclo-15-19)-KIKHVVKLK[KENSE][EKSEK]SKLRSQLVKRK-NH2 [Compound 269]”, the “Invasion (% inhib.)” value in series [1] worked out at 0 % inhib. In series [2] (40% TFE/water), the “[0]208 mean residue ellipticity at λ=208 nm” value is -2.65E04 deg cm^2 dmol^−1, the “[0]222/[0]208 ratio of ellipticities” value is recorded as 0.81 and the “[0]222 mean residue ellipticity at λ=222 nm” value is reported as -2.14E04 deg cm^2 dmol^−1. The “[θ]222/[θ]208 ratio of ellipticities” value in series [2] (setting [4]) came out at 0.44. Further, in series [2] (setting [5]), the “[θ]222/[θ]208 ratio of ellipticities” value is 0.44. Moreover, in series [2] (water), the “[0]208 mean residue ellipticity at λ=208 nm” value is on record as -9.04E+03 deg cm^2 dmol^−1, the “[0]222/[0]208 ratio of ellipticities” value was 0.44 and the “[0]222 mean residue ellipticity at λ=222 nm” value is on record as -3.99E+03 deg cm^2 dmol^−1. In series [3], the “inhibition of cell migration (in words)” value is given as “significantly inhibit cell migration” and the “Migration (% inhib.)” value worked out at 61 % inhib.

Take “Ac-(cyclo-11-15, cyclo-16-20)-KIKHVVKLKD[ENSQK][ESEVK]KLRSQLVKRIK-NH2 [Compound 267]”: the “Invasion (% inhib.)” value in series [1] was determined as 0 % inhib. The “[0]208 mean residue ellipticity at λ=208 nm” value in series [2] (40% TFE/water) is on record as -3.02E04 deg cm^2 dmol^−1; in series [2] (water) it was -1.29E+04 deg cm^2 dmol^−1. For the same substance, the results for the “[0]222/[0]208 ratio of ellipticities” value in series [2] (40% TFE/water), in series [2] (in water) and in series [2] (water) were 0.77, 0.48 and 0.48, respectively. The “[0]222 mean residue ellipticity at λ=222 nm” value in series [2] (40% TFE/water) is -2.34E04 deg cm^2 dmol^−1; in series [2] (water) it was -6.14E+03 deg cm^2 dmol^−1. For the same substance, the “[θ]222/[θ]208 ratio of ellipticities” value in series [2] (setting [4]) and in series [2] (setting [5]) was 0.48 throughout. For the same substance, the “Migration (% inhib.)” value in series [3] stood at 0 % inhib.

On to “Ac-(cyclo-28-32)-NLKQKIKHVVKLKDENSQLKSEVSKLR[EQLVK]RKQN-NH2 (Ac-NLKQKIKHVVKLKDENSQLKSEVSKLREQLVKRKQN-NH2; lactam 28-32; SMILES CC[C@H](C)[C@H](NC(=O)[C@H](CCCCN)NC(=O)[C@H](CCC(N)=O)NC(=O)[C@H](CCCCN)NC(=O)[C@H](CC(C)C)NC(=O)[C@H](CC(N)=O)NC(C)=O)C(=O)N[C@@H](CCCCN)C(=O)N[C@@H](Cc1c[nH]cn1)C(=O)N[C@H](C(=O)N[C@H](C(=O)N[C@@H](CCCCN)C(=O)N[C@@H](CC(C)C)C(=O)N[C@@H](CCCCN)C(=O)N[C@@H](CC(=O)O)C(=O)N[C@@H](CCC(=O)O)C(=O)N[C@@H](CC(N)=O)C(=O)N[C@@H](CO)C(=O)N[C@@H](CCC(N)=O)C(=O)N[C@@H](CC(C)C)C(=O)N[C@@H](CCCCN)C(=O)N[C@@H](CO)C(=O)N[C@@H](CCC(=O)O)C(=O)N[C@H](C(=O)N[C@@H](CO)C(=O)N[C@@H](CCCCN)C(=O)N[C@@H](CC(C)C)C(=O)N[C@@H](CCCNC(=N)N)C(=O)N[C@H]1CCC(=O)NCCCC[C@@H](C(=O)N[C@@H](CCCNC(=N)N)C(=O)N[C@@H](CCCCN)C(=O)N[C@@H](CCC(N)=O)C(=O)N[C@@H](CC(N)=O)C(N)=O)NC(=O)[C@H](C(C)C)NC(=O)[C@H](CC(C)C)NC(=O)[C@H](CCC(N)=O)NC1=O)C(C)C)C(C)C)C(C)C) [Compound 277]”, for which the “Invasion (% inhib.)” value in series [1] turned out to be 0 % inhib. Also, in series [2] (40% TFE/water), the “[0]208 mean residue ellipticity at λ=208 nm” value is -3.10E04 deg cm^2 dmol^−1, the “[0]222/[0]208 ratio of ellipticities” value came to 0.85 and the “[0]222 mean residue ellipticity at λ=222 nm” value is recorded as -2.65E04 deg cm^2 dmol^−1. Further, the “[θ]222/[θ]208 ratio of ellipticities” value in series [2] (setting [4]) worked out at 0.64. For the same substance, the “[θ]222/[θ]208 ratio of ellipticities” value in series [2] (setting [5]) came out at 0.64. Further, in series [2] (water), the “[0]208 mean residue ellipticity at λ=208 nm” value was -1.46E+04 deg cm^2 dmol^−1, the “[0]222/[0]208 ratio of ellipticities” value came to 0.64 and the “[0]222 mean residue ellipticity at λ=222 nm” value is -9.36E+03 deg cm^2 dmol^−1. Also, in series [3], the “inhibition of cell migration (in words)” value is on record as “significantly inhibit cell migration” and the “Migration (% inhib.)” value was 63 % inhib.

In the case of “Ac-KIKHVVKLKDENSQLKSEVSKLRSQLVKRK-NH2 [Compound 265]”, in series [1], the “inhibition of cellular invasion (in words)” value is listed as “significantly inhibited cellular invasion” and the “Invasion (% inhib.)” value amounted to 46 % inhib. In series [2] (40% TFE/water), the “[0]208 mean residue ellipticity at λ=208 nm” value is listed as -2.72E04 deg cm^2 dmol^−1, the “[0]222/[0]208 ratio of ellipticities” value is on record as 0.80 and the “[0]222 mean residue ellipticity at λ=222 nm” value is on record as -2.18E04 deg cm^2 dmol^−1. In addition, in series [2] (setting [4]), the “[θ]222/[θ]208 ratio of ellipticities” value is listed as 0.40. The “[θ]222/[θ]208 ratio of ellipticities” value in series [2] (setting [5]) was 0.40. In series [2] (water), the “[0]208 mean residue ellipticity at λ=208 nm” value is -2.73E+04 deg cm^2 dmol^−1, the “[0]222/[0]208 ratio of ellipticities” value is listed as 0.40 and the “[0]222 mean residue ellipticity at λ=222 nm” value is given as -1.09E+04 deg cm^2 dmol^−1. In series [3], the “inhibition of cell migration (in words)” value is listed as “significantly inhibit cell migration” and the “Migration (% inhib.)” value was found to be 63 % inhib.

As for “Ac-NLKQKIKHVVKLKDENSQLKSEVSKLRSQLVKRKQN-NH2 [Compound 275]”, the “Invasion (% inhib.)” value in series [1] was 0 % inhib. Further, in series [2] (40% TFE/water), the “[0]208 mean residue ellipticity at λ=208 nm” value was -3.52E04 deg cm^2 dmol^−1, the “[0]222/[0]208 ratio of ellipticities” value is recorded as 0.83 and the “[0]222 mean residue ellipticity at λ=222 nm” value is listed as -2.96E04 deg cm^2 dmol^−1. Besides, in series [2] (setting [4]), the “[θ]222/[θ]208 ratio of ellipticities” value was found to be 0.35. Further, the “[θ]222/[θ]208 ratio of ellipticities” value in series [2] (setting [5]) turned out to be 0.35. In series [2] (water), the “[0]208 mean residue ellipticity at λ=208 nm” value is on record as -9.71E+03 deg cm^2 dmol^−1, the “[0]222/[0]208 ratio of ellipticities” value amounted to 0.35 and the “[0]222 mean residue ellipticity at λ=222 nm” value is listed as -3.35E+03 deg cm^2 dmol^−1. In series [3], the “inhibition of cell migration (in words)” value is reported as “significantly inhibit cell migration” and the “Migration (% inhib.)” value came out at 60 % inhib.

As to Ac-VSKLRSQLVKRKQN-NH2 [Compound 132], in series [1], the “inhibition of cellular invasion (in words)” value is reported as “significantly inhibited cellular invasion” and the “Invasion (% inhib.)” value is 66 % inhib. The “[θ]222/[θ]208 ratio of ellipticities” value in series [2] (setting [4]) came out at 0.13. For the same substance, in series [2] (setting [5]), the “[θ]222/[θ]208 ratio of ellipticities” value amounted to 0.13. Besides, in series [2] (in 40% TFE/water), the “[0]222/[0]208 ratio of ellipticities” value is given as 0.72, the “[0]208 mean residue ellipticity” value is recorded as -1.59E+04 deg cm^2 dmol^−1 and the “[0]222 mean residue ellipticity” value was -1.14E+04 deg cm^2 dmol^−1. Further, in series [2] (in water), the “[0]222/[0]208 ratio of ellipticities” value is given as 0.13, the “alpha-helical character by CD (in words)” value is recorded as “nominal alpha helical character in water”, the “[0]208 mean residue ellipticity” value was -4,85E+03 deg cm^2 dmol^−1 and the “[0]222 mean residue ellipticity” value was -1.10E+03 deg cm^2 dmol^−1. In series [3], the “inhibition of cell migration (in words)” value is given as “significantly inhibit cell migration” and the “Migration (% inhib.)” value is listed as 36 % inhib.
